The results in this text go back to US20260049134A1 (UNIVERSITY OF FLORIDA RESEARCH FOUNDATION, published 2026).

The target in assay [1] is T1, GARS, endogenous in H929 multiple myeloma cells (human, UniProt P41250 37-739, limits assumed).
T1 construct: Native protein pulled down from H929 lysates; also called Glycyl-tRNA synthetase; GlyRS
T1 sequence: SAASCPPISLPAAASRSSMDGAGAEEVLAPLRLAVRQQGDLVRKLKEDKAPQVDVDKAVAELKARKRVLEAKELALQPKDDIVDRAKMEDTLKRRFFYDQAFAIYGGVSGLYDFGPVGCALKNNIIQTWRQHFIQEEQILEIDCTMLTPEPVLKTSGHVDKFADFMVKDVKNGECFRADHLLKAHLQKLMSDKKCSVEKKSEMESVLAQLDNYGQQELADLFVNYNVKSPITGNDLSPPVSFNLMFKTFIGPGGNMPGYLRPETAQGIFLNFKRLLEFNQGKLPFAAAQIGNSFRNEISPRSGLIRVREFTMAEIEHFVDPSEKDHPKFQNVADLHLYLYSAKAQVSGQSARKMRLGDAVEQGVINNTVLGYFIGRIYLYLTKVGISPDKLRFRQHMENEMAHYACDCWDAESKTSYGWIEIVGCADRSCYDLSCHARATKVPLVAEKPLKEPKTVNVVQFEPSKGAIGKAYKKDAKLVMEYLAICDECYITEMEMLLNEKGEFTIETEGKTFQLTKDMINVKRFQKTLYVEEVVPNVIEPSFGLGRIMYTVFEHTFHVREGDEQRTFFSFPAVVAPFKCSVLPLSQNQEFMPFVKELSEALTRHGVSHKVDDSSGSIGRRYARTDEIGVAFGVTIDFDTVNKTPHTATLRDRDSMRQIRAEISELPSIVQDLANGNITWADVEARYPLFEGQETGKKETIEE
As to the kind of experiment: flow cytometry, H929 + NT Green siRNA; None 416; surface target GARS putative. Background: Flow cytometry measures light scatter and fluorescence of single cells or particles in a stream.

The target in assay [2] is T1, GARS, endogenous in H929 multiple …. As to the kind of experiment: flow cytometry, H929 + PTPRG siRNA; None 2.13; surface target GARS putative.
Assay [3] shares this target. Briefly: flow cytometry, H929 + GARS siRNA (siRNA against the putative target); None 0.2.
A further assay deals with T2, IL13RA1.
T2 construct: coated protein in the ELISA; also called IL13RA1-Fc-His (R&D Systems)
T2 chain: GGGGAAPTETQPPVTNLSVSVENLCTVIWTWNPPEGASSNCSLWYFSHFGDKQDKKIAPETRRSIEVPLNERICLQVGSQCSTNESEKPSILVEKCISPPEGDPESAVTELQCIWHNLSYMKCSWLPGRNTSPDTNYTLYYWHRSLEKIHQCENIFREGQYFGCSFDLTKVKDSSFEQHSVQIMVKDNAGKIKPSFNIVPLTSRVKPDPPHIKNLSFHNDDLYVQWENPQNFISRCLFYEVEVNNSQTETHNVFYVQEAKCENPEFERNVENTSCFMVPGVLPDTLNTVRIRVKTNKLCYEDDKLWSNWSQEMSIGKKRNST
Briefly: ELISA on coated IL13RA1-Fc-His. As to the method:
Recombinant purified ECDs (50-150 ng) of each putative target protein were coated, incubated with 150 ng of the indicated primary antibody, and binding was detected using a peroxidase-conjugated anti-human Fab secondary antibody. Heatmap represents averages of technical triplicates. (8B) Target validation via siRNA knockdown. H929 cells were transfected with siRNA pools targeting the putative antibody targets ICAM1, CADM1, and PTPRG. Cells were then subjected to cognate IgG binding analysis via flow cytometry. (NT, non-targeting siRNA).
ELISA ELISA was conducted as described previously. Briefly, 50-150 ng of antigen was coated overnight in half-area 96-well plates at 4° C., blocked with 3% BSA at 37° C. for 1 h, and 150 ng of chimeric rabbit/human IgG1 was added, incubating for 2 h at 37° C. […] After incubating at 37° C. for 15 min-1 h (depending on intensity of controls), data were acquired using a SpectraMax M5 plate reader (Molecular Devices).

B1: HW-16 chimeric rabbit-human IgG1 LA/LA/PG (antibody, V domains shown)
VH: QSLEESGGRLVTPGTPLTLTCTASGFSLSSYAMSWVRQAPGKGLEWIGTMPTGGGTYYASWAKGRFTISKTSTTVDLQITSPTTEDTATYFCAKHWNIWGPGTLVTISS
VL: DIVLTQTPSSTSTAVGDTVTINCRASQSIGRNLAWFQQKPGQPPKLLIYRASNLASGVPSRFKGSGSRTQFTLTISGVQREDAATYYCLGSYSSSDTAFGGGTELEILR
notes: Fc-silenced (L234A/L235A/P329G) IgG1, kappa; Alexa Fluor 647-labeled in single-step flow cytometry; Cluster C-45
In the case of B1, the “mAb binding (MFI)” value in assay [1] came out at 59500. The “Cells stained (%)” value in assay [2] is 98.2%; in assay [3], 99.1%.

B2: HW-8 chimeric rabbit-human IgG1 LA/LA/PG (antibody, V domains shown)
VH: QSLEESGGRLVTPGTPLTLTCTVSGFSLSSYAMSWVRQAPGKGLEWIGAISTGGSTTYASWAKGRFTISKTSSTTVDLKMTSLTTEDTATYFCVRHFRLWGPGTLVTISS
VL: QVLTQTPSSVSAAVGGTVTIKCQASQSIGSALAWFQQKPGQRPKLLIYRASNLASGVPSRFKGSGSGTEFALTISGVQREDAATYYCLGGAAAVWAFGAGTNVEIKR
notes: as for B1
B2: in assay [1], the “mAb binding (MFI)” value was found to be 15500. For the same molecule, the “Cells stained (%)” value in assay [2] came out at 84.3%; in assay [3], 99%. In addition, the binding result with IL13RA1 is recorded as “no binding (tested: 150 ng IgG1 per well)”.

B3: HW-45 chimeric rabbit-human IgG1 LA/LA/PG (antibody, V domains shown)
VH: QKQLVESGGRLVTPGTPLTLTCTVSGFSLSSYAMGWFRQAPGKGLEWIGIINSYGSTYYASWAKGRFTISKTSTTVDLKITSPTTEDTATYFCGRRIGSARFDPWGPGTLVTVSS
VL: SFVLTQPASVQVNLGQTVSLTCTADTLSRSYASWYQQKPGQAPVLLIYRDTRRPSGVPDRFSGSSSGNTATLTISGAQAGDEADYYCATSDGSGSSYRLVFGGGTQLTVTG
notes: Fc-silenced (L234A/L235A/P329G) IgG1, lambda; Alexa Fluor 647-labeled in single-step flow cytometry; Prototype of cluster C-45
Consider B3, for which the “mAb binding (MFI)” value in assay [1] was determined as 29500. The “Cells stained (%)” value was determined as 97.3% in assay [2] and 98.5% in assay [3].

B4: HW-81 chimeric rabbit-human IgG1 LA/LA/PG (antibody, V domains shown)
VH: QKQLVESGGGLVTPGGTLTLTCTVSGFSLSSNGVSWVRQAPGKGLEYIGLIRSIGSTYYATWAKGRFTISKTSTTVDLKITSPTTEDTATYFCARGGYRNGFKLWGPGTLVTVSS
VL: QPVLTQSPSVSAALGASAKLTCTLSSAHKTYYIEWYQQQHPGKAPRYLMQLQSDGSYTKGTGVPDRFSGSSSGADRYLIISSVQAEDEADYICGVIDSAVYVFGGGTQLTVTG
notes: Fc-silenced (L234A/L235A/P329G) IgG1, lambda; Alexa Fluor 647-labeled in single-step flow cytometry; Cluster C-45
With B4, the “mAb binding (MFI)” value in assay [1] came out at 693000. The figures for the “Cells stained (%)” value in assay [2] and in assay [3] were 100% and 99.4%, respectively. Also, in the assay with IL13RA1, the binding result is listed as “no binding (tested: 150 ng IgG1 per well)”.
